Tests used:
Type in all cases: cell-based, human
[1] = test system: wild-type and variant SNAP-GIPR; assay: Single-concentration GIP cAMP response by HTRF in AD293 cells; settings: Fig S3F, HTRF, mean;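 further: ratio to experiment-wide average response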
Procedure: (§1) All variants were tested in parallel on each occasion to control for transfection efficiency differences between experiments.

[2] = test system: wild-type and variant SNAP-GIPR; assay: Surface SNAP-GIPR expression (SNAP-tag labelling) in AD293 cells; settings: for AD293 Surface: Fig S3E, mean; for Surface SNAP-GIPR expression: sheet Fig 1C;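 on all read-outs here: scaled to the experimental average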
How it was run: (§2)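 Surface GIPR is quantified from wide-field images after labelling intact transfected cells with a membrane-impermeant SNAP probe at 500 nM for 10 min at room temperature. Specific signal, corrected for nontransfected cells, is normalized to the experiment-wide average or to wild-type.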

[3] = test system: wild-type and variant SNAP-GIPR; assay: Constitutive and agonist-mediated internalization, reversible SNAP-tag labelling, AD293 cells; set-up: key to Internalisation, Vehicle / Internalisation, +GIP / Internalisation, GIP-only: % internalization: residual fluorescence after Mesna vs pre-Mesna; Surface expression: unit not given here; settings: Mean
How it was run: (§3)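 % internalization = residual specific fluorescence after Mesna / pre-Mesna value. Imaging in TNE buffer pH 8.6; second image 10 min post-Mesna.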

[4] = test system: wild-type and variant SNAP-GIPR; assay: cADDis cAMP imaging in AD293 cells, ensemble, expression-matched and per decile; settings: Fig S3F, cADDis, mean
How it was run: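 Per-cell cAMP from cADDis intensity over time, with cells excluded by IBMX/FSK response criteria. Expression matching used wild-type surface-SNAP deciles, top and bottom trimmed, mean of decile means. Ensemble values ignore deciles. Wide-field imaging at 37 °C in KRBH with 6 mM glucose, 0.1% BSA, 24 h post-transfection in AD293.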

[5] = test system: wild-type and variant SNAP-GIPR; assay: Single-concentration GIP cAMP response by HTRF in INS-1 cells; settings: Fig S3E, mean
Procedure: as §1

[6] = test system: wild-type and variant SNAP-GIPR; assay: Constitutive and agonist-mediated internalization, reversible SNAP-tag labelling, INS-1 cells; set-up: key to Internalisation, GIP-only / Internalisation, Vehicle / Internalisation, +GIP: % internalization: residual fluorescence after Mesna vs pre-Mesna; settings: Mean
How it was run: as §3

[7] = test system: wild-type and variant SNAP-GIPR; assay: Surface SNAP-GIPR expression (SNAP-tag labelling) in INS-1 cells; settings: Fig 4G; Mean
How it was run: as §2

B1: E463Q (protein, UniProt P48546 22-466, looked up, variant E463Q)
Gastric inhibitory …: RAETGSKGQTAGELYQRWERYRRECQETLAAAEPPSGLACNGSFDMYVCWDYAAPNATARASCPWYLPWHHHVAAGFVLRQCGSDGQWGLWRDHTQCENPEKNEAFLDQRLILERLQVMYTVGYSLSLATLLLALLILSLFRRLHCTRNYIHINLFTSFMLRAAAILSRDRLLPRPGPYLGDQALALWNQALAACRTAQIVTQYCVGANYTWLLVEGVYLHSLLVLVGGSEEGHFRYYLLLGWGAPALFVIPWVIVRYLYENTQCWERNEVKAIWWIIRTPILMTILINFLIFIRILGILLSKLRTRQMRCRDYRLRLARSTLTLVPLLGVHEVVFAPVTEEQARGALRFAKLGFEIFLSSFQGFLVSVLYCFINKEVQSEIRRGWHHCRLRRSLGEEQRQLPERAFRALPSGSGPGEVPTSRGLSSGTLPGPGNEASRELQSYC
[1]; AD293, 100 pM
  AD293 100 pM HTRF: 1.1295
[1]; AD293, 100 nM
  AD293 100 nM HTRF: 1.311
[2]; column repeated, paired with cAMP 100 nM
  AD293 Surface: 1.191
[2]; paired with cAMP 100 pM
  AD293 Surface: 1.191
[2]; replicate 1
  Surface SNAP-GIPR expression: 1.219
[2]; replicate 2
  Surface SNAP-GIPR expression: 1.021
[2]; replicate 3
  Surface SNAP-GIPR expression: 0.7247
[2]; replicate 4
  Surface SNAP-GIPR expression: 1.851
[2]; replicate 5
  Surface SNAP-GIPR expression: 0.8113
[2]; replicate 6
  Surface SNAP-GIPR expression: 1.148
[2]; replicate 7
  Surface SNAP-GIPR expression: 0.8161
[2]; replicate 8
  Surface SNAP-GIPR expression: 1.203
[2]; replicate 9
  Surface SNAP-GIPR expression: 1.004
[2]; replicate 10
  Surface SNAP-GIPR expression: 0.9721
[2]; replicate 11
  Surface SNAP-GIPR expression: 1.39
[2]; replicate 12
  Surface SNAP-GIPR expression: 1.373
[2]; replicate 13
  Surface SNAP-GIPR expression: 1.65
[2]; replicate 14
  Surface SNAP-GIPR expression: 1.648
[2]; replicate 15
  Surface SNAP-GIPR expression: 1.459
[2]; replicate 16
  Surface SNAP-GIPR expression: 1.416
[2]; replicate 17
  Surface SNAP-GIPR expression: 1.284
[2]; replicate 18
  Surface SNAP-GIPR expression: 1.262
[2]; replicate 19
  Surface SNAP-GIPR expression: 1.404
[2]; replicate 20
  Surface SNAP-GIPR expression: 1.518
[2]; replicate 21
  Surface SNAP-GIPR expression: 1.445
[2]; replicate 22
  Surface SNAP-GIPR expression: 1.187
[2]; replicate 23
  Surface SNAP-GIPR expression: 1.117
[2]; replicate 24
  Surface SNAP-GIPR expression: 1.135
[2]; replicate 25
  Surface SNAP-GIPR expression: 1.182
[2]; replicate 26
  Surface SNAP-GIPR expression: 1.219
[2]; replicate 27
  Surface SNAP-GIPR expression: 0.8928
[2]; replicate 28
  Surface SNAP-GIPR expression: 1.514
[2]; replicate 29
  Surface SNAP-GIPR expression: 0.593
[2]; replicate 30
  Surface SNAP-GIPR expression: 0.9046
[2]; replicate 31
  Surface SNAP-GIPR expression: 0.8556
[2]; replicate 32
  Surface SNAP-GIPR expression: 1.334
[2]; replicate 33
  Surface SNAP-GIPR expression: 1.324
[2]; replicate 34
  Surface SNAP-GIPR expression: 1.052
[2]; replicate 35
  Surface SNAP-GIPR expression: 1.061
[2]; replicate 36
  Surface SNAP-GIPR expression: 1.215
[2]; replicate 37
  Surface SNAP-GIPR expression: 1.115
[2]; replicate 38
  Surface SNAP-GIPR expression: 0.8974
[2]; replicate 39
  Surface SNAP-GIPR expression: 1.265
[2]; replicate 40
  Surface SNAP-GIPR expression: 1.153
[2]; replicate 41
  Surface SNAP-GIPR expression: 1.19
[3]; Fig 4E, GIP 100 nM
  +GIP internalisation (100 nM): 0.6258
  GIP-specific internalisation (100 nM): 0.1525
[3]; Fig 4E
  Constitutive internalisation (100 nM): 0.4733
  Surface expression: 1.14
[3]; Fig S4C, AD293
  Internalisation, +GIP: 55.318
  Internalisation, GIP-only: 13.3425
  Internalisation, Vehicle: 41.9756
[4]; AD293, 100 pM
  AD293 100 pM cADDis: 34.7191
[4]; AD293, 100 nM
  AD293 100 nM cADDis: 36.9
[5]
  INS-1 cAMP (100 nM): 1.2
[6]; Fig 4G, GIP 100 nM
  +GIP internalisation (100 nM): 0.6116
  GIP-specific internalisation (100 nM): 0.1296
[6]; Fig 4G
  Constitutive internalisation (100 nM): 0.4821
[6]; Fig S4C, INS-1
  Internalisation, +GIP: 48.5083
  Internalisation, GIP-only: 10.305
  Internalisation, Vehicle: 38.2033
[7]
  Surface expression: 1.282

— article PMC13544220, “Glycemic and bodyweight effects of GIPR coding variation reflect differences in surface expression and intrinsic functional impairment” (Science Advances, 2026)
